1 molecule from PMC10641069, “Intra- and inter-molecular regulation by intrinsically-disordered regions governs PUF protein RNA binding” (Nature Communications, 2023) can be followed below.

One series deals with T1, FBF-2 RBD+CT L610A (Caenorhabditis elegans, UniProt Q09312 164-632, L610A).
T1 sequence: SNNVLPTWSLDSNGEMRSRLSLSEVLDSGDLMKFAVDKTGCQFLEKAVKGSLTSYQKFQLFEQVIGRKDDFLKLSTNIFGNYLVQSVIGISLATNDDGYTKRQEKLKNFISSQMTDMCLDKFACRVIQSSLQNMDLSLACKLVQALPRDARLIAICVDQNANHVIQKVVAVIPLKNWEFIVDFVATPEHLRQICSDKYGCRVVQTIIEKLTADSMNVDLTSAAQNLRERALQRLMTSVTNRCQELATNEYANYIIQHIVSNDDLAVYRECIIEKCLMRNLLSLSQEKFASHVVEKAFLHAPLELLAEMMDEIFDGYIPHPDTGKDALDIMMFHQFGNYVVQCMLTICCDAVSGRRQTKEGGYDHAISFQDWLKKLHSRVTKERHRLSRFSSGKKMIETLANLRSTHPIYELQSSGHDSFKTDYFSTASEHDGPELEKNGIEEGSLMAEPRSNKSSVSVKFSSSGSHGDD
Kind of series: SPR; kon 15.5e4 M-1 s-1, koff 1.36e-3 s-1; EMSA: FBF-2 in 20 mM HEPES pH 7.4, 150 mM NaCl, 0.5 mM TCEP mixed 1:1 with 5 nM final RNA in 10 mM HEPES pH 7.4, 0.01% Tween 20, 0.1 mg/ml BSA, 0.1 mg/ml yeast. The settings on record: protein: recombinant; tags: none (His6-SUMO removed with Ulp1); label: 3'-biotin. Background: SPR reads the build-up and loss of mass on a sensor chip optically.

For another series, the target named is T2, FBF-2 RBD+CT Y479A (Caenorhabditis elegans, UniProt Q09312 164-632, Y479A).
T2 sequence: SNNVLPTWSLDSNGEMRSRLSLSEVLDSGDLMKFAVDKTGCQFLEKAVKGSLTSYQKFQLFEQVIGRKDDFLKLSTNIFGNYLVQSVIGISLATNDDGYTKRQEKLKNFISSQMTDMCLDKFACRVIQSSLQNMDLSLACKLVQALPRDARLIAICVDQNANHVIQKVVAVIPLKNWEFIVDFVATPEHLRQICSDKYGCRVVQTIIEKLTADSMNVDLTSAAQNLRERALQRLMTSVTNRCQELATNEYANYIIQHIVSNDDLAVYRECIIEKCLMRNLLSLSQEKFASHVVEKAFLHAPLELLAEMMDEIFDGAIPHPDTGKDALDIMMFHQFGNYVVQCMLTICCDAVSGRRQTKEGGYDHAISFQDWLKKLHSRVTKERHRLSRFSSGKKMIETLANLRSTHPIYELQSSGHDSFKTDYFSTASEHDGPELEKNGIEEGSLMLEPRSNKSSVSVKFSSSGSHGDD
Kind of series: SPR; kon 10.2e4 M-1 s-1, koff 1.18e-3 s-1; EMSA: FBF-2 in 20 mM HEPES pH 7.4, 150 mM NaCl, 0.5 mM TCEP mixed 1:1 with 5 nM final RNA in 10 mM HEPES pH 7.4, 0.01% Tween 20, 0.1 mg/ml BSA, 0.1 mg/ml yeast. Conditions: protein: recombinant; tags: none (His6-SUMO removed with Ulp1); label: 3'-biotin.

The next series deals with T3, FBF-2 RBD+CT Loop6A (Caenorhabditis elegans, UniProt Q09312 164-632, E592A;D594A;E597A;E599A;E604A;E605A).
T3 sequence: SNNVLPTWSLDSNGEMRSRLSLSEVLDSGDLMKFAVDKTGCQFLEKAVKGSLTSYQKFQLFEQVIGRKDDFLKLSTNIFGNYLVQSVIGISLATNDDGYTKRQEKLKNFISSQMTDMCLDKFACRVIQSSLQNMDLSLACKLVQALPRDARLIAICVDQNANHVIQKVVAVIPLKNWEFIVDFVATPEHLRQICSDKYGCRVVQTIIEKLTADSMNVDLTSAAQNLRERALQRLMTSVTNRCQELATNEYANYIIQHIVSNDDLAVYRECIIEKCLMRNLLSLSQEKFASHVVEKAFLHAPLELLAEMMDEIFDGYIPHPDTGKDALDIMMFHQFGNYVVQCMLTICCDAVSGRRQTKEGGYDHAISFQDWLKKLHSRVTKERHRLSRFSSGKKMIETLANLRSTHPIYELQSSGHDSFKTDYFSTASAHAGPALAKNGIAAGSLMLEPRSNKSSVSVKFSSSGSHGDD
As to the kind of experiment: SPR; kon 10.9e4 M-1 s-1, koff 0.94e-3 s-1; EMSA: FBF-2 in 20 mM HEPES pH 7.4, 150 mM NaCl, 0.5 mM TCEP mixed 1:1 with 5 nM final RNA in 10 mM HEPES pH 7.4, 0.01% Tween 20, 0.1 mg/ml BSA, 0.1 mg/ml yeast. Conditions: protein: recombinant; tags: none (His6-SUMO removed with Ulp1); label: 3'-biotin.

Another series deals with T4, FBF-2 RBD+CT (Caenorhabditis elegans, UniProt Q09312 164-632).
T4 sequence: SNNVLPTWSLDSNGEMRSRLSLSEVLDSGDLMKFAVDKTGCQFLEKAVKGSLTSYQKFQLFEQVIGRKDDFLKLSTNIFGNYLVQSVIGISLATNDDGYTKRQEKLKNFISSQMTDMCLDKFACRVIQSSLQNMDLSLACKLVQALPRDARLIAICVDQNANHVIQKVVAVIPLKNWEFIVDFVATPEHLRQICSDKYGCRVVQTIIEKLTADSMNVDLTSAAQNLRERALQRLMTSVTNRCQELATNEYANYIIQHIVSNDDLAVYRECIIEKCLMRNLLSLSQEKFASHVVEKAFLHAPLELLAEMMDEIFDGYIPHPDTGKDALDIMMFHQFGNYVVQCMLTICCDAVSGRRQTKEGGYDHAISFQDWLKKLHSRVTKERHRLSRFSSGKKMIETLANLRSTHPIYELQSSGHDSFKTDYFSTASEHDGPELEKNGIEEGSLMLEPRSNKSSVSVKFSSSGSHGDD
As to the kind of experiment: SPR; kon 7.1e4 M-1 s-1, koff 4.42e-3 s-1; EMSA: FBF-2 in 20 mM HEPES pH 7.4, 150 mM NaCl, 0.5 mM TCEP mixed 1:1 with 5 nM final RNA in 10 mM HEPES pH 7.4, 0.01% Tween 20, 0.1 mg/ml BSA, 0.1 mg/ml yeast. Conditions: protein: recombinant; tags: none (His6-SUMO removed with Ulp1); label: 3'-biotin.

Another series concerns the target T5, FBF-2 RBD (Caenorhabditis elegans, UniProt Q09312 164-575).
T5 sequence: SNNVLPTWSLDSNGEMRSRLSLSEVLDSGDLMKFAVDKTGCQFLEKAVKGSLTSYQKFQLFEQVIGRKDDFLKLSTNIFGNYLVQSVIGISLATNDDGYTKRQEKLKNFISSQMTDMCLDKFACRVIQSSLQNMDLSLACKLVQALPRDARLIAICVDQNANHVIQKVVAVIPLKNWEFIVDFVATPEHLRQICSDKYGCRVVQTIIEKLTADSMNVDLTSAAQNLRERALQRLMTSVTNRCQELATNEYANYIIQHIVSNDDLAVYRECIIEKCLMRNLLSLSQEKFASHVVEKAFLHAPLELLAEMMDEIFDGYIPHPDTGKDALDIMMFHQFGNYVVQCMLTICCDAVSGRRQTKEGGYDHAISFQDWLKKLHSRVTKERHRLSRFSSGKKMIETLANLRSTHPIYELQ
As to the kind of experiment: SPR; kon 13.6e4 M-1 s-1, koff 0.86e-3 s-1; EMSA: FBF-2 in 20 mM HEPES pH 7.4, 150 mM NaCl, 0.5 mM TCEP mixed 1:1 with 5 nM final RNA in 10 mM HEPES pH 7.4, 0.01% Tween 20, 0.1 mg/ml BSA, 0.1 mg/ml yeast. The settings on record: protein: recombinant; tags: none (His6-SUMO removed with TEV protease); label: 3'-biotin.

B1: gld-1 FBEa RNA (SPR) (ssRNA)
RNA: AUCAUGUGCCAUACA
What is called Kd is the free concentration of one partner at which half of the binding sites on the other are occupied at equilibrium, for simple one-to-one binding. On to B1, for which the Kd is 9.4 ± 3.6 nM with FBF-2 RBD+CT L610A; 12.9 ± 6.4 nM with FBF-2 RBD+CT Y479A; 9.5 ± 4.2 nM with FBF-2 RBD+CT Loop6A; 65.1 ± 21.1 nM with FBF-2 RBD+CT; 6.6 ± 2.3 nM with FBF-2 RBD.
